1 protein from publication PMC10357585 can be followed below.

One may read the Km as the concentration of substrate that gives half-maximal velocity. As usually defined, the kcat is the number of substrate molecules converted per active site and unit of time at saturation.

Substrate in the data set: Nc1nc2nc[nH]c2c(=O)[nH]1
Put plainly: Initial rate studies of TcHGXPRT, GMP biosynthesis. It is filed as biochemical, Trypanosoma cruzi. The settings on record: other: variable substrate PRPP (1–78 μM) at fixed Gua levels; pH 8.3; 37.0 °C.

B1: TcHGXPRT (Trypanosoma cruzi strain CL Brener) (protein)
chain: MISSQQAMVHVVSRNAEGVIVVDGKAYPMAEELVATESVIQRSIKAVAKQIADFYRPLSHRDTHGGGGVAPISDENPLIIISVLKGSYIFTADMVRYLGDYGLPHVVDFLRVASYRGTSSTNKMKLLAETQFKALRGKHVLILEDIVDSGKTLRYILDKVQREHQPATLKVCVLADKPGGRRVTMQPDFVCLTVPNKYVIGYGFEVNDRFRCFRHIFTLRPGEARRYPAHL
As to B1, the Km came to 28 ± 3 µM and the kcat was 0.44 ± 0.02 s⁻¹.
